Measurements taken from patent US20210386875.

Test system: ^111In-labeled DTPA-pMMP9 peptide on non-radioactive 10 nm gold nanoparticles

Chain of MMP9 (chain, as listed by the source): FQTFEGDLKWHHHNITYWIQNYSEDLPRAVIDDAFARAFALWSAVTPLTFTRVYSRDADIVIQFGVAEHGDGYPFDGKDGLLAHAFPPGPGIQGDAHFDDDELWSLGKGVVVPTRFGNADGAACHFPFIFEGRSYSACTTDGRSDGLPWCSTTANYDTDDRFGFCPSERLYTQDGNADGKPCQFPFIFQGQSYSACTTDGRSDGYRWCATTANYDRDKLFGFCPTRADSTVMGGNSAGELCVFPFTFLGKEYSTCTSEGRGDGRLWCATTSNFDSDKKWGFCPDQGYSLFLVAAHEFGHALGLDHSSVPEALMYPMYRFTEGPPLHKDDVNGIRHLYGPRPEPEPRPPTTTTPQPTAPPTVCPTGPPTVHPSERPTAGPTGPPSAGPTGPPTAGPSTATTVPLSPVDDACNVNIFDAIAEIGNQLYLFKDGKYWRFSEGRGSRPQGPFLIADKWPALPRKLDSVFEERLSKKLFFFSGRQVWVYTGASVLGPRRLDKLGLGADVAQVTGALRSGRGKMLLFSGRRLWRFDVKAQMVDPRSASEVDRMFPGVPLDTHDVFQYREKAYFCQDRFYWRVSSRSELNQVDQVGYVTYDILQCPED

MMP9
percent of ^111In cleaved from the nanoparticle after 48 hours incubation with MMP9 (16% without MMP9): 48% ^111In was cleaved from the nanoparticle compared to only 16% without MMP9
